Test results taken from patent US20160272683A1 (Novo Nordisk, published 2016).
Numbered stars: 1 amine (or outer) side, 2 acyl side, 3 side chain; on linkers, the order of the positions; unused ones are H or OH. * marks the point of attachment. C20 diacid = O=C(O)CCCCCCCCCCCCCCCCCCC(=O)*; C18 diacid = O=C(O)CCCCCCCCCCCCCCCCC(=O)*; γGlu = O=C(O)[C@H](CCC(=O)[*:2])N[*:1]

B1: [N-terminal(C18 diacid), 5I, 9I, 10I, 20I]mimylin (peptide)
peptide: {C18 diacid}-EASEISTAIIGRLSAELHEIATLPRTETGPESP-NH2
SMILES: CC[C@H](C)[C@H](NC(=O)[C@H](C)NC(=O)[C@@H](NC(=O)[C@H](CO)NC(=O)[C@@H](NC(=O)[C@H](CCC(=O)O)NC(=O)[C@H](CO)NC(=O)[C@H](C)NC(=O)[C@H](CCC(=O)O)NC(=O)CCCCCCCCCCCCCCCCC(=O)O)[C@@H](C)CC)[C@@H](C)O)C(=O)N[C@H](C(=O)NCC(=O)N[C@@H](CCCNC(=N)N)C(=O)N[C@@H](CC(C)C)C(=O)N[C@@H](CO)C(=O)N[C@@H](C)C(=O)N[C@@H](CCC(=O)O)C(=O)N[C@@H](CC(C)C)C(=O)N[C@@H](Cc1c[nH]cn1)C(=O)N[C@@H](CCC(=O)O)C(=O)N[C@H](C(=O)N[C@@H](C)C(=O)N[C@H](C(=O)N[C@@H](CC(C)C)C(=O)N1CCC[C@H]1C(=O)N[C@@H](CCCNC(=N)N)C(=O)N[C@H](C(=O)N[C@@H](CCC(=O)O)C(=O)N[C@H](C(=O)NCC(=O)N1CCC[C@H]1C(=O)N[C@@H](CCC(=O)O)C(=O)N[C@@H](CO)C(=O)N1CCC[C@H]1C(N)=O)[C@@H](C)O)[C@@H](C)O)[C@@H](C)O)[C@@H](C)CC)[C@@H](C)CC
B2: [N-terminal(C18 diacid-gGlu), des1, 4Q, 30S, 31G]mimylin (peptide)
peptide: {C18 diacid-γGlu}-ASQLSTAALGRLSAELHELATLPRTETGSGSP-NH2
SMILES: CC(C)C[C@H](NC(=O)[C@H](C)NC(=O)[C@H](C)NC(=O)[C@@H](NC(=O)[C@H](CO)NC(=O)[C@H](CC(C)C)NC(=O)[C@H](CCC(N)=O)NC(=O)[C@H](CO)NC(=O)[C@H](C)NC(=O)CC[C@H](NC(=O)CCCCCCCCCCCCCCCCC(=O)O)C(=O)O)[C@@H](C)O)C(=O)NCC(=O)N[C@@H](CCCNC(=N)N)C(=O)N[C@@H](CC(C)C)C(=O)N[C@@H](CO)C(=O)N[C@@H](C)C(=O)N[C@@H](CCC(=O)O)C(=O)N[C@@H](CC(C)C)C(=O)N[C@@H](Cc1c[nH]cn1)C(=O)N[C@@H](CCC(=O)O)C(=O)N[C@@H](CC(C)C)C(=O)N[C@@H](C)C(=O)N[C@H](C(=O)N[C@@H](CC(C)C)C(=O)N1CCC[C@H]1C(=O)N[C@@H](CCCNC(=N)N)C(=O)N[C@H](C(=O)N[C@@H](CCC(=O)O)C(=O)N[C@H](C(=O)NCC(=O)N[C@@H](CO)C(=O)NCC(=O)N[C@@H](CO)C(=O)N1CCC[C@H]1C(N)=O)[C@@H](C)O)[C@@H](C)O)[C@@H](C)O
B3: [N-terminal(C20 diacid-gGlu), -1E, 1A, 23Y, 30S, 31G]mimylin (peptide)
peptide: {C20 diacid-γGlu}-EAASELSTAALGRLSAELHELATYPRTETGSGSP-NH2
SMILES: CC(C)C[C@H](NC(=O)[C@H](C)NC(=O)[C@H](C)NC(=O)[C@@H](NC(=O)[C@H](CO)NC(=O)[C@H](CC(C)C)NC(=O)[C@H](CCC(=O)O)NC(=O)[C@H](CO)NC(=O)[C@H](C)NC(=O)[C@H](C)NC(=O)[C@H](CCC(=O)O)NC(=O)CC[C@H](NC(=O)CCCCCCCCCCCCCCCCCCC(=O)O)C(=O)O)[C@@H](C)O)C(=O)NCC(=O)N[C@@H](CCCNC(=N)N)C(=O)N[C@@H](CC(C)C)C(=O)N[C@@H](CO)C(=O)N[C@@H](C)C(=O)N[C@@H](CCC(=O)O)C(=O)N[C@@H](CC(C)C)C(=O)N[C@@H](Cc1c[nH]cn1)C(=O)N[C@@H](CCC(=O)O)C(=O)N[C@@H](CC(C)C)C(=O)N[C@@H](C)C(=O)N[C@H](C(=O)N[C@@H](Cc1ccc(O)cc1)C(=O)N1CCC[C@H]1C(=O)N[C@@H](CCCNC(=N)N)C(=O)N[C@H](C(=O)N[C@@H](CCC(=O)O)C(=O)N[C@H](C(=O)NCC(=O)N[C@@H](CO)C(=O)NCC(=O)N[C@@H](CO)C(=O)N1CCC[C@H]1C(N)=O)[C@@H](C)O)[C@@H](C)O)[C@@H](C)O
B4: [N-terminal(C18 diacid-gGlu), des1, 6T, 9V, 30S, 31G]mimylin (peptide)
peptide: {C18 diacid-γGlu}-ASELTTAVLGRLSAELHELATLPRTETGSGSP-NH2
SMILES: CC(C)C[C@H](NC(=O)[C@H](CCC(=O)O)NC(=O)[C@H](Cc1c[nH]cn1)NC(=O)[C@H](CC(C)C)NC(=O)[C@H](CCC(=O)O)NC(=O)[C@H](C)NC(=O)[C@H](CO)NC(=O)[C@H](CC(C)C)NC(=O)[C@H](CCCNC(=N)N)NC(=O)CNC(=O)[C@H](CC(C)C)NC(=O)[C@@H](NC(=O)[C@H](C)NC(=O)[C@@H](NC(=O)[C@@H](NC(=O)[C@H](CC(C)C)NC(=O)[C@H](CCC(=O)O)NC(=O)[C@H](CO)NC(=O)[C@H](C)NC(=O)CC[C@H](NC(=O)CCCCCCCCCCCCCCCCC(=O)O)C(=O)O)[C@@H](C)O)[C@@H](C)O)C(C)C)C(=O)N[C@@H](C)C(=O)N[C@H](C(=O)N[C@@H](CC(C)C)C(=O)N1CCC[C@H]1C(=O)N[C@@H](CCCNC(=N)N)C(=O)N[C@H](C(=O)N[C@@H](CCC(=O)O)C(=O)N[C@H](C(=O)NCC(=O)N[C@@H](CO)C(=O)NCC(=O)N[C@@H](CO)C(=O)N1CCC[C@H]1C(N)=O)[C@@H](C)O)[C@@H](C)O)[C@@H](C)O
B5: [N-terminal(C18 diacid-gGlu), des1, 4Q, 16Q, 30S, 31G]mimylin (peptide)
peptide: {C18 diacid-γGlu}-ASQLSTAALGRLSAQLHELATLPRTETGSGSP-NH2
SMILES: CC(C)C[C@H](NC(=O)[C@H](C)NC(=O)[C@H](C)NC(=O)[C@@H](NC(=O)[C@H](CO)NC(=O)[C@H](CC(C)C)NC(=O)[C@H](CCC(N)=O)NC(=O)[C@H](CO)NC(=O)[C@H](C)NC(=O)CC[C@H](NC(=O)CCCCCCCCCCCCCCCCC(=O)O)C(=O)O)[C@@H](C)O)C(=O)NCC(=O)N[C@@H](CCCNC(=N)N)C(=O)N[C@@H](CC(C)C)C(=O)N[C@@H](CO)C(=O)N[C@@H](C)C(=O)N[C@@H](CCC(N)=O)C(=O)N[C@@H](CC(C)C)C(=O)N[C@@H](Cc1c[nH]cn1)C(=O)N[C@@H](CCC(=O)O)C(=O)N[C@@H](CC(C)C)C(=O)N[C@@H](C)C(=O)N[C@H](C(=O)N[C@@H](CC(C)C)C(=O)N1CCC[C@H]1C(=O)N[C@@H](CCCNC(=N)N)C(=O)N[C@H](C(=O)N[C@@H](CCC(=O)O)C(=O)N[C@H](C(=O)NCC(=O)N[C@@H](CO)C(=O)NCC(=O)N[C@@H](CO)C(=O)N1CCC[C@H]1C(N)=O)[C@@H](C)O)[C@@H](C)O)[C@@H](C)O

Target: T1, human amylin receptor (human calcitonin receptor + human RAMP3) (human) (UniProt P30988)
T1 sequence (looked up) 1: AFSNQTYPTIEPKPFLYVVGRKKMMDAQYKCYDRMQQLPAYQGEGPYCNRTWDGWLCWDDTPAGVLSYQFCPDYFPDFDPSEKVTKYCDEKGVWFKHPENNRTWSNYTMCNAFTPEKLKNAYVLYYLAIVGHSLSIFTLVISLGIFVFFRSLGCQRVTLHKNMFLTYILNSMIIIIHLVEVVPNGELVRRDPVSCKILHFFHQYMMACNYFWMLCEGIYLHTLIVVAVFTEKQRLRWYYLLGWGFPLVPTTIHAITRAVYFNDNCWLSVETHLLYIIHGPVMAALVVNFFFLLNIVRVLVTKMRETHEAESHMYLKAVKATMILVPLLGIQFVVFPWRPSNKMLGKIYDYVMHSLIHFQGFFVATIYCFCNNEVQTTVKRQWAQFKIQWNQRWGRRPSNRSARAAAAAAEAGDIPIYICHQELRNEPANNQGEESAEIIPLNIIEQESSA
T1 sequence (looked up) 2: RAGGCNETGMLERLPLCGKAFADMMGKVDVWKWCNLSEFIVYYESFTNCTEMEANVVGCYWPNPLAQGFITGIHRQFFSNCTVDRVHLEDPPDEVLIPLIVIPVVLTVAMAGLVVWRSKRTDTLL
Experiment: whole-cell competition vs 125I-rat amylin (Assay Va)

Row | IC50 [nM] | Binder
1 | 0.998 | B1
2 | 0.587 | B2
3 | 0.111 | {C20 diacid-γGlu}-ASGLSTAALGRLSAELHELATYPRTETGSGSP-NH2 [[N-terminal(C20 diacid-gGlu), des1, 4G, 23Y, 30S, 31G]mimylin]
4 | 1.92 | B3
5 | 0.653 | B4
6 | 0.812 | {C18 diacid-γGlu}-ASEVSTAVLGRLSAELHELATLPRTETGSGSP-NH2 [[N-terminal(C18 diacid-gGlu), des1, 5V, 9V, 30S, 31G]mimylin]
7 | 0.428 | B5
8 | 92 | {C20 diacid-γGlu}-ASELSTAALGRLSAELHELATYPRTETGSGSY-OH [[N-terminal(C20 diacid-gGlu), des1, 23Y, 30S, 31G, 33Y, C-terminal(-)]mimylin]
